Experimental data reported in paper doi:10.1101/2023.07.10.548257 (bioRxiv, 2024).
Substitutions are numbered along the chain they refer to. No end group written: not given here.

What was measured:
[1] = target: T1, SHP2 N-SH2^WT domain (Homo sapiens, UniProt Q06124); experiment: SH2 specificity profiling by bacterial peptide display (Human pTyr and pTyr-Var Libraries), N-SH2 WT; format: binding; settings: for >3.2 --> N-WT-Ave: average enrichment score above cutoff of 3.2 (true binder); for N-WT-Ave (enrichment score): bacterial peptide display, enzymatically phosphorylated displayed peptides, SH2-coated beads, deep sequencing, frequency in enriched sample / input, average, Human pTyr Library N = 3, pTyr-Var Library N = 2
T1 construct: SHP2 SH2 domains were cloned into a His6-SUMO-SH2-Avi construct; His6-SUMO (N, cleaved yes); made in house; host or cells: E. coli C43(DE3), co-expressed with BirA
T1 sequence (Q06124 6-102 limits assumed): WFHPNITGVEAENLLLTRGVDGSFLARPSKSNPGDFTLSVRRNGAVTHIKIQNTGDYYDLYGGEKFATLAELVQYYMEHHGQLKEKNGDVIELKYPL
Protocol: (§1) Next, we characterized the sequence specificity of the SH2 mutants relative to their wild-type counterparts in a large-scale, unbiased screen. […] For each peptide in a library, an enrichment score is calculated from the deep sequencing data as the frequency of the peptide in the SH2-enriched sample divided by the frequency of the peptide in the unenriched input sample ([34]). For this study, we used two largely non-overlapping libraries, both encoding known human phosphosites. […] The Human pTyr Library consists of 1,916 sequences derived from known phosphorylation sites in the human proteome, along with another 617 control mutants ([35]). […]
(§2) SH2 specificity profiling using bacterial peptide display
(§3) Preparation of bacterial cells
(§4) Electrocompetent MC1061 cells were transformed with ~100 ng of the respective library. After 1 hour recovery in 1 mL LB, cells were further diluted into 250 mL LB + 0.1% chloramphenicol. 1.8 mL of overnight culture was used to inoculate 100 mL LB + 0.1% chloramphenicol, and grown until OD600 reached 0.5. 20 mL of cell suspension was induced at 25 °C using a final concentration of 0.4% arabinose until the OD600 ~ 1 (after approximately 4 hours). The cells were spun down at 4000 rpm for 15 minutes, and the pellet was resuspended in PBS so that the OD600 ~1.5. The cells were stored in the fridge and used within a week.
(§5) For each sample, 75 μL of Dynabeads™ FlowComp™ Flexi Kit were washed twice in 1 mL SH2 buffer (50 mM HEPES pH 7.5, 150 mM NaCl, 1 mM TCEP, and 0.2% BSA) on a magnetic rack.
(§6) The beads were then resuspended in 75 μL of SH2 buffer. SH2 domains were thawed quickly and 20 μM of protein was added to the beads. SH2 buffer was added up to 150 μL, and the suspension was incubated for 1 hour at 4 °C while rotating. After 1 hour, the suspension was placed on a magnetic rack and washed twice with 1 mL SH2 buffer.
(§7) Preparing the phosphorylated cells
(§8) 150 μL of prepared cells per sample were spun down for 4000 rpm for 5 minutes at 4 °C.
(§9) Kinase screen buffer was prepared (50 mM Tris, 10 mM magnesium chloride, 150 mM sodium chloride; add 2 mM sodium orthovanadate and 1 mM TCEP fresh) and the cells of each sample were resuspended in 100 μL kinase screen buffer. Kinases c-Src, c-Abl, AncSZ, Eph1B were added to a final concentration of 2.5 µM each, creatine phosphate was added to a final concentration of 5 mM, and phosphokinase was added to a final concentration of 50 µg/mL. The suspension was incubated at 37 °C for 5 minutes before ATP was added to a final concentration of 1 mM. This mixture was incubated at 37 °C for 3 hours. After 3 hours, EDTA was added to a final concentration of 25 mM to quench the reaction. The input library control sample was not phosphorylated. These cells were spun down at 4000 rpm for 15 minutes at 4 °C. The cells were then resuspended in 100 µL of SH2 buffer + 0.1% BSA. Phosphorylation of the cells was confirmed by labeling with the PY20-PerCP-eFluor 710 pan-phosphotyrosine antibody followed by analysis via flow cytometry.
(§10) Enriching for cells displaying high-affinity phosphopeptide ligands
(§11) 100 μL of phosphorylated cells were mixed with 75 µL SH2-beads for 1 hour at 4 °C while rotating. After 1 hour, samples were placed on a magnetic rack, supernatant was removed and 1 mL SH2 buffer was added to each sample. This was rotated for 30 minutes at 4 °C to wash the beads.
(§12) After this wash, the beads were placed on a magnetic rack, the supernatant was removed and 50 µL […]
(§13) Preparing sequencing samples & deep sequencing
(§14) All SH2-selected samples and the input library control were resuspended in 50 µL MilliQ water, vortexed, and boiled for 10 minutes at 100 °C. The boiled lysate was used as the DNA template in a PCR reaction using the TruSeq-eCPX-Fwd and TruSeq-eCPX-Rev primers. The mixture resulting from this PCR was used directly into a second PCR to append Illumina sequencing adaptors and Supplementary Information - page 5 of 18 […]
(§15) unique 5’ and 3’ indices to each sample (D700 and D500 series primers). The resulting PCR mixtures […]

[2] = target: T2, SHP2 C-SH2^WT domain (Homo sapiens, UniProt Q06124); experiment: SH2 specificity profiling by bacterial peptide display (Human pTyr and pTyr-Var Libraries), C-SH2 WT; format: binding; settings: for >3.2 --> C-WT-Ave: average enrichment score above cutoff of 3.2 (true binder); for C-WT-Ave (enrichment score): bacterial peptide display, frequency in enriched sample / input, average, Human pTyr Library N = 3, pTyr-Var Library N = 2
T2 construct: SHP2 SH2 domains were cloned into a His6-SUMO-SH2-Avi construct; His6-SUMO (N, cleaved yes); made in house; host or cells: E. coli C43(DE3), co-expressed with BirA
T2 sequence (Q06124 112-216 limits assumed): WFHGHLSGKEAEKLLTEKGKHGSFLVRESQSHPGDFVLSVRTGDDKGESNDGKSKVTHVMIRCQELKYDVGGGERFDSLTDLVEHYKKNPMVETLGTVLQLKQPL
Protocol: as §1, §2, §3, §4, §5, §6, §7, §8, §9, §10, §11, §12, §13, §14, §15

[3] = target: T3, SHP2 C-SH2^E139D domain (Homo sapiens, UniProt Q06124, E139D); experiment: SH2 specificity profiling by bacterial peptide display (Human pTyr and pTyr-Var Libraries), C-SH2 E139D; format: binding; settings: for >3.2 --> C-E139D-Ave: average enrichment score above cutoff of 3.2 (true binder); for C-E139D-Ave (enrichment score): bacterial peptide display, frequency in enriched sample / input, average, Human pTyr Library N = 3, pTyr-Var Library N = 2
T3 construct: SHP2 SH2 domains were cloned into a His6-SUMO-SH2-Avi construct; His6-SUMO (N, cleaved yes); made in house; host or cells: E. coli C43(DE3), co-expressed with BirA
T3 sequence (Q06124 112-216 E139D limits assumed): T2 sequence (Q06124 112-216 limits assumed) with E28D
Protocol: as §1, §2, §3, §4, §5, §6, §7, §8, §9, §10, §11, §12, §13, §14, §15

[4] = target: T4, full-length SHP2^WT (Homo sapiens, UniProt Q06124); experiment: SHP2 activation assay using phosphopeptides (DiFMUP), SHP2 WT; format: biochemical; settings: activation of full-length SHP2 WT (0.05 nM) by phosphopeptide; DiFMUP substrate; 60 mM HEPES pH 7.2, 75 mM KCl, 75 mM NaCl, 1 mM EDTA, 0.05% Tween-20, 0.5 mM TCEP; fluorescence read every 25 s for 6 min; mean of N (column N)
T4 construct: Full-length SHP2 constructs were diluted in assay buffer; His6-TEV (N, cleaved yes); made in house; host or cells: E. coli BL21(DE3)
T4 sequence (Q06124 1-593): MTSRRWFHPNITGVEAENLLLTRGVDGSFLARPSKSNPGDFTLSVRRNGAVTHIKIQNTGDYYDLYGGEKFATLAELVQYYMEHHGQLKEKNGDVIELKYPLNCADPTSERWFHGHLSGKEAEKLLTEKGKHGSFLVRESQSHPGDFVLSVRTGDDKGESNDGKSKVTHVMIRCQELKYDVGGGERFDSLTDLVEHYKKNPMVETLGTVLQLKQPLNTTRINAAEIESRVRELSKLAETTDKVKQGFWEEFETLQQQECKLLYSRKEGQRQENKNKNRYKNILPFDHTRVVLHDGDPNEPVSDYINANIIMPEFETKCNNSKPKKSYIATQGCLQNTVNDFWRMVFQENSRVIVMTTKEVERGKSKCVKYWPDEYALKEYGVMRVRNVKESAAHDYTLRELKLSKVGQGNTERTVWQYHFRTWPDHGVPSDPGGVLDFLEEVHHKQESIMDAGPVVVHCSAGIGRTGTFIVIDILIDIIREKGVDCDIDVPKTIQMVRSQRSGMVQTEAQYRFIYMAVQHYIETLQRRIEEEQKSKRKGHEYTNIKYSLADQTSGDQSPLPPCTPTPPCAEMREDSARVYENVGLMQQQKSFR
Protocol: SHP2 activation assays using phosphopeptides
Full-length SHP2 constructs were diluted in assay buffer (60 mM HEPES pH 7.2, 75 mM KCl, 75 mM NaCl,1 mM EDTA, 0.05% Tween-20, with 0.5 mM TCEP freshly added) to a 2X concentration of 0.1 nM. Peptides were serially diluted in assay buffer, with the last point of the concentration series fully without peptide. 15 μL of peptide and 15 μL of 800 μM DiFMUP was added to a black 96-well half area plate. Right before starting the plate reader assay, 30 μL SHP2 was added to each well a Supplementary Information - page 4 of 18 […]
final concentration of 0.05nM. Kinetic measurements (Ex 358/Em […]) were taken on a BioTek Neo2 plate reader every 25 seconds for 6 minutes. […]
OD600 reached 0.5. 20 mL of cell suspension was induced at 25 °C using a final concentration of 0.4% arabinose until the OD600 ~ 1 (after approximately 4 hours). The cells were spun down at 4000 rpm for 15 minutes, and the pellet was resuspended in PBS so that the OD600 ~1.5. The cells were stored in the fridge and used within a week.
as §5, §6, §7, §8, §9, §10, §11, §12, §13
All SH2-selected samples and the input library control were resuspended in 50 µL MilliQ water, vortexed, and boiled for 10 minutes at 100 °C. The boiled lysate was used as the DNA template in a PCR reaction using the TruSeq-eCPX-Fwd and TruSeq-eCPX-Rev primers. The mixture resulting from this PCR was used directly into a second PCR to append Illumina sequencing adaptors and Supplementary Information - page 5 of 18

[5] = target: SHP2 N-SH2 domain, wild type (N-SH2-Avi-biotin) (UniProt Q06124); experiment: peptide display screen (pTyr-Var Library); settings: N = 2 independent library transformations and screens; parent: est. 2.9; read off a plot
[6] = target: T5, full-length SHP2^T42A (Homo sapiens, UniProt Q06124, T42A); experiment: SHP2 activation assay using phosphopeptides (DiFMUP), SHP2 T42A; format: biochemical; settings: activation of full-length SHP2 T42A (0.05 nM) by phosphopeptide; DiFMUP substrate; HEPES pH 7.2 assay buffer; mean of N (column N)
T5 construct: Full-length SHP2 constructs were diluted in assay buffer; His6-TEV (N, cleaved yes); made in house; host or cells: E. coli BL21(DE3)
T5 sequence (Q06124 1-593 T42A): T4 sequence (Q06124 1-593) with T42A

Compound | >3.2 --> N-WT-Ave [1] | N-WT-Ave (enrichment score) [1] | >3.2 --> C-WT-Ave [2] | C-WT-Ave (enrichment score) [2] | >3.2 --> C-E139D-Ave [3] | C-E139D-Ave (enrichment score) [3] | EC50 [4] [nM] | enrichment (fselected / finput) [5] | EC50 [6] [nM]
SDRKGGSYTQAASSD (also: phosphorylated, site not given here) [1A01_HUMAN_344] | FALSE (>3.2 -->) | 0.7728 | FALSE (>3.2 -->) | 0.7595 | FALSE (>3.2 -->) | 0.8092 |  |  | 
CC(=O)NCC(=O)N[C@@H](CC(=O)O)C(=O)N[C@@H](CCCCN)C(=O)N[C@@H](CCC(N)=O)C(=O)N[C@H](C(=O)N[C@@H](CCC(=O)O)C(=O)N[C@@H](Cc1ccc(OP(=O)(O)O)cc1)C(=O)N[C@@H](CC(C)C)C(=O)N[C@@H](CC(=O)O)C(=O)N[C@@H](CC(C)C)C(=O)N[C@@H](CC(=O)O)C(=O)N[C@@H](CC(C)C)C(=O)N[C@@H](CC(=O)O)C(N)=O)C(C)C |  |  |  |  |  |  | 26200 |  | 
MLH1 pTyr 293 peptide THPFL-pY-LSLEI L292P |  |  |  |  |  |  |  | 1.4 | 
CC[C@H](C)[C@H](NC(=O)[C@@H](NC(=O)[C@H](C)NC(=O)[C@H](Cc1ccc(OP(=O)(O)O)cc1)NC(=O)[C@@H](NC(=O)[C@@H]1CCCN1C(=O)[C@H](CCC(=O)O)NC(=O)[C@@H]1CCCN1C(=O)[C@H](CO)NC(=O)[C@H](C)NC(C)=O)[C@@H](C)CC)[C@@H](C)O)C(=O)N[C@@H](CC(=O)O)C(=O)N[C@@H](Cc1ccccc1)C(=O)N[C@@H](CC(=O)O)C(N)=O |  |  |  |  |  |  | 2820 |  | 1460
MKGDYYRYLAEVATG (also: phosphorylated, site not given here) [1433G_HUMAN_133] | FALSE (>3.2 -->) | 0.8572 | FALSE (>3.2 -->) | 0.777 | FALSE (>3.2 -->) | 0.8393 |  |  | 
MKGDYHRYLAEFATG (also: phosphorylated, site not given here) [1433E_HUMAN_131] | FALSE (>3.2 -->) | 0.8269 | FALSE (>3.2 -->) | 0.8786 | FALSE (>3.2 -->) | 0.911 |  |  | 
MKGDAHRYLAEFATG (bacterially displayed) [1433E_HUMAN_131_YA] | FALSE (>3.2 -->) | 0.7788 | FALSE (>3.2 -->) | 0.6613 | FALSE (>3.2 -->) | 0.7738 |  |  | 
MKGDAARYLAEVATG (bacterially displayed) [1433G_HUMAN_133_YA] | FALSE (>3.2 -->) | 0.9356 | FALSE (>3.2 -->) | 0.8982 |  |  |  |  | 
